Experimental data taken from publication PMC7568338 (Proceedings of the National Academy of Sciences of the …, 2020).
Positions count from the first letter of the chain named.

B1: ^D645CClpA (enzyme, E. coli, UniProt P0ABH9 1-749, looked up)
chain: MLNQELELSLNMAFARAREHRHEFMTVEHLLLALLSNPSAREALEASSVDLVALRQELEAFIEQTTPVLPASEEERDTQPTLSFQRVLQRAVFHVQSSGRNEVTGANVLVAIFSEQESQAAYLLRKHEVSRLDVVNFISHGTRKDEPTQSSDPGSQPNSEEQAGGEERMENFTTNLNQLARVGGIDPLIGREKELERAIQVLSRRRKNNPLLVGESGVGKTAIAEGLAWRIVQGDVPEVMADSTIYSLDIGSLLAGTKYRGDFEKRFKALLKQLEQDTNSILFIDEIHTIIGAGAASGGQVDAANLIKPLLSSGKIRVIGSTTYQEFSNIFEKDRALARRFQKIDITEPSIEETVQIINGLKPKYEAHHDVRYTAKAVRAAVELAVKYINDRHLPDKAIDVIDEAGARARLMPVSKRKKTVNVADIESVVARIARIPEKSVSQSDRDTLKNLGDRLKMLVFGQDKAIEALTEAIKMARAGLGHEHKPVGSFLFAGPTGVGKTEVTVQLSKALGIELLRFDMSEYMERHTVSRLIGAPPGYVGFDQGGLLTDAVIKHPHAVLLLDEIEKAHPDVFNILLQVMDNGTLTDNNGRKADFRNVVLVMTTNAGVRETERKSIGLIHQDNSTDAMEEIKKIFTPEFRNRLCNIIWFDHLSTDVIHQVVDKFIVELQVQLDQKGVSLEVSQEARNWLAEKGYDRAMGARPMARVIQDNLKKPLANELLFGSLVDGGQVTVALDKEKNELTYGFQSA
B2: ^Q709CClpA (enzyme, E. coli, UniProt P0ABH9 1-749, looked up)
chain: B1 chain with C645D, Q709C

Target: the molecule itself
Assay: SEC

Protein	binding result
B1	binds
B2	binds
